The target of one test is T1, Smc3 (S. cerevisiae (budding yeast), UniProt P47037 1-1230).
T1 construct: Smc3, budding yeast; the Smc3 chain of m1; Stood in the cross-linking sample as a chain of cohesin; source: purified as part of cohesin, as previously described (Minamino et al. 2018)
T1 sequence (looked up): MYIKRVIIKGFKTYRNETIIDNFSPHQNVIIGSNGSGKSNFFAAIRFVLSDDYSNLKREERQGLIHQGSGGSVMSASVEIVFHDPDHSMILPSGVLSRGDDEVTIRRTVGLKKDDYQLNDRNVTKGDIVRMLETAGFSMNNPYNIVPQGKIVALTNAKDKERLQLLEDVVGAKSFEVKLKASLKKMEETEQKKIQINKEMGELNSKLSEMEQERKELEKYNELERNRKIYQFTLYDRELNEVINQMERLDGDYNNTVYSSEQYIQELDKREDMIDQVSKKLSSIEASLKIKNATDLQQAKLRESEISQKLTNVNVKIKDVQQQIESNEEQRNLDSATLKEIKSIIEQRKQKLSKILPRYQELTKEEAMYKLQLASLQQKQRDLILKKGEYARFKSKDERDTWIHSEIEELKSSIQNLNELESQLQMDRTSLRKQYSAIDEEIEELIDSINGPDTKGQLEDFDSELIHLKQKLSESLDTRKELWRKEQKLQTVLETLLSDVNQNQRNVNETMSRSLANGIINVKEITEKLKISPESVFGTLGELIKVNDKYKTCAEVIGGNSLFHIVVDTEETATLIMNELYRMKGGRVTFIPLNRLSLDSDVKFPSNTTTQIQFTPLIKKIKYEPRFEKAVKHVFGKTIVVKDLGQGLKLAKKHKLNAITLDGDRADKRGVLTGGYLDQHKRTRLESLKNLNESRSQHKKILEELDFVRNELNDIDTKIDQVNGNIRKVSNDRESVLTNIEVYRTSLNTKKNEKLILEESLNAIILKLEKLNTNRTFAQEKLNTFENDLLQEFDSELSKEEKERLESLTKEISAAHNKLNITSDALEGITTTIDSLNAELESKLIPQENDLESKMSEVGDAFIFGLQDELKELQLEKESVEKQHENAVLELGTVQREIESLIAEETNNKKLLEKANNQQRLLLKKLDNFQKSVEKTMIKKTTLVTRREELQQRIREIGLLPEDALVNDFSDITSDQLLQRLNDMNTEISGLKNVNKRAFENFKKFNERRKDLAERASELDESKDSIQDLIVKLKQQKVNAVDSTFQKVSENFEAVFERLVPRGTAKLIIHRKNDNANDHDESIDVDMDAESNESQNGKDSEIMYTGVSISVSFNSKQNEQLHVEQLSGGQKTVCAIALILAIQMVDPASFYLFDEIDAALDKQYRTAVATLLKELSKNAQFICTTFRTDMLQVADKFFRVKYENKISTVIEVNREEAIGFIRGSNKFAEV
Description: cross-linking; CLMS with sulfo-SDA; cohesin, Tof1-Csm3 and Chl1 with or without Mrc1 at 300-350 nM, 30 °C 5 min, cross-linker 2 h at 4 °C, UV 365 nm; LC-MS/MS, 1% FDR at residue-pair level; two samples merged. The following applies: both partners purified.

Test [1] concerns the target T2, cohesin tetramer complex (Smc1-Smc3-Scc1-Scc3) (S. cerevisiae (budding yeast), UniProt P32908 1-1225; P47037 1-1230; Q12158 1-566; P40541 1-1150).
T2 construct: Smc1, cohesin subunit, budding yeast; Smc3, cohesin subunit, budding yeast; Scc1, cohesin subunit, budding yeast; Scc3, cohesin subunit, budding yeast; also called cohesin complex; source: purified as previously described (Minamino et al. 2018): IgG agarose, 3C protease cleavage; copies: + + +
Description: SEC; Superose 6 Increase 3.2/300; 25 mM HEPES-KOH pH 7.6, 100 mM sodium acetate, 0.5 mM TCEP, 2 mM EDTA; proteins at the same molarity incubated together or separately at 30 °C for 5 min; fractions analysed by immunoblotting. Conditions: both partners purified. (In gel filtration, larger molecules generally elute earlier.)

T2 sequence (P32908 whole entry, chain 1 of 4, one chain of several): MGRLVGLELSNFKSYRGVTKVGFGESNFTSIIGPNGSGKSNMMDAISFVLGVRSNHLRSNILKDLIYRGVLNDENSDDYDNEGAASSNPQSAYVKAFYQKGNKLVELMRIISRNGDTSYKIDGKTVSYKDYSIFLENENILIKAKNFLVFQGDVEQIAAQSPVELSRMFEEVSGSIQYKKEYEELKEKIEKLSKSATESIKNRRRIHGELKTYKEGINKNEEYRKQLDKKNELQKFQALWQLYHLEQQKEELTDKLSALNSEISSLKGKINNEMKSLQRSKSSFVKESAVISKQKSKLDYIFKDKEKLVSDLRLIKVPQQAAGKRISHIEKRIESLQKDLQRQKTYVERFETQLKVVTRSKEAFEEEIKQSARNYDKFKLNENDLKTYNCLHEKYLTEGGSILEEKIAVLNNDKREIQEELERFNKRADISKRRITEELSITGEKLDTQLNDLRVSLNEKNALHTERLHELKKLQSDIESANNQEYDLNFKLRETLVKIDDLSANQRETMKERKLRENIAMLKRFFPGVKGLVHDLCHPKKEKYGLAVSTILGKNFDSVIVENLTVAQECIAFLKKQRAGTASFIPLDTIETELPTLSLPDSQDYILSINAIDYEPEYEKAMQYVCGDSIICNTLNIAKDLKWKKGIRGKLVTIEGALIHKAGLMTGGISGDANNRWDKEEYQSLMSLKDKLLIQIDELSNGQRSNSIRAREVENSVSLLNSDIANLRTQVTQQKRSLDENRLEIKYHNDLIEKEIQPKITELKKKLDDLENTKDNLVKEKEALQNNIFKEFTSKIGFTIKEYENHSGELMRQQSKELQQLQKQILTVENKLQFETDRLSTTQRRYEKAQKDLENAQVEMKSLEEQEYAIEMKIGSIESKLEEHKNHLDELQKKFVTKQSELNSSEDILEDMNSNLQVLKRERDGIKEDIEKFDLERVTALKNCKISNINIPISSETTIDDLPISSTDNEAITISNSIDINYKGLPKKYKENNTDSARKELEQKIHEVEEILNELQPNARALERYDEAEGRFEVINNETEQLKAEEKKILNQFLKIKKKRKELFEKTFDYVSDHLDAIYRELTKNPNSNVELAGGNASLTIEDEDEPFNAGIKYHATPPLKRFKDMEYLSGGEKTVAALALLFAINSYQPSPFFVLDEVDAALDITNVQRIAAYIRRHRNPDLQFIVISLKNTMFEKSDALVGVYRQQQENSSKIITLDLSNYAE
T2 sequence (Q12158 whole entry, chain 3 of 4, one chain of several): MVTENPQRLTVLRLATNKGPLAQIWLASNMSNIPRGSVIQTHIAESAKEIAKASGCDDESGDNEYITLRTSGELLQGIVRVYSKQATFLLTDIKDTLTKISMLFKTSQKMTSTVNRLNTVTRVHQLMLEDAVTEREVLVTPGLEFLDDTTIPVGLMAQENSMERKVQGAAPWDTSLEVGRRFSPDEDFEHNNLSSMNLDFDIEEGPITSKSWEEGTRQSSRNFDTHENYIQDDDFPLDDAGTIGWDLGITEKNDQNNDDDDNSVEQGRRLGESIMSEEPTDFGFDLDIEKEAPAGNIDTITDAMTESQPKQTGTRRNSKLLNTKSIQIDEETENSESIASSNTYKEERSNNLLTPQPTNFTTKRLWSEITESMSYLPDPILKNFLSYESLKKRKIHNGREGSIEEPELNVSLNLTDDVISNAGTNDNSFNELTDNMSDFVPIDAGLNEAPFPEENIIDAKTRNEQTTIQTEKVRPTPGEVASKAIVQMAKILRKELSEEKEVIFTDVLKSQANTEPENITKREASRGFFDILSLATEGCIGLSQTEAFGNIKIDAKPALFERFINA
T2 sequence (P40541 whole entry, chain 4 of 4, one chain of several): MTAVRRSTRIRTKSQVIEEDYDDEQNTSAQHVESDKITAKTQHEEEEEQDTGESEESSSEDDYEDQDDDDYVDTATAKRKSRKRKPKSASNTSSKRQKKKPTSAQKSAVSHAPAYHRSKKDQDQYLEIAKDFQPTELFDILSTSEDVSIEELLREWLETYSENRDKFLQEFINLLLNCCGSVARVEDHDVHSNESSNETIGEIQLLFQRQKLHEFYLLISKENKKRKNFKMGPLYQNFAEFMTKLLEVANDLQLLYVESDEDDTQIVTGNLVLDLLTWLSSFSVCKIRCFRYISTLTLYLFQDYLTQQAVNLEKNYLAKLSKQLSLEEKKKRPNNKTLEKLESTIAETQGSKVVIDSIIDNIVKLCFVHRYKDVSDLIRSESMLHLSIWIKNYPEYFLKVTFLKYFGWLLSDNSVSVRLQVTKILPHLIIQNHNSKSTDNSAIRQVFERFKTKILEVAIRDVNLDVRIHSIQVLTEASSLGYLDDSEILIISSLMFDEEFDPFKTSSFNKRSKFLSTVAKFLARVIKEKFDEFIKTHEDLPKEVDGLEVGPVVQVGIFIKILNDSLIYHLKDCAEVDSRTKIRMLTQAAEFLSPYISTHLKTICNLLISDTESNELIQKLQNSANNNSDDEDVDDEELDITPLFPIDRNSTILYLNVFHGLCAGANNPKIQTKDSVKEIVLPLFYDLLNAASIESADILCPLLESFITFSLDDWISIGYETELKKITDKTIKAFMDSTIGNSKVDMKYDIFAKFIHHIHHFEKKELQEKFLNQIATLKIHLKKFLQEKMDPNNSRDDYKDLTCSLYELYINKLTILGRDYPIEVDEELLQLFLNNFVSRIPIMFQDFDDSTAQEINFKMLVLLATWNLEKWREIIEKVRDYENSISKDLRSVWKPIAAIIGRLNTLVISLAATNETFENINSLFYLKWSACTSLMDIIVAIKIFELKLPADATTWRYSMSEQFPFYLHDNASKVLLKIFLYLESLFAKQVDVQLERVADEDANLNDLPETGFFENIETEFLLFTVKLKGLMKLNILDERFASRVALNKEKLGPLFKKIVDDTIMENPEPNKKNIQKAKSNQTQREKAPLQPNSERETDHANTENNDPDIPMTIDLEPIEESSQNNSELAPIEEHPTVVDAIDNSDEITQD

B1: Mrc1 (natural protein, S. cerevisiae (budding yeast), UniProt P25588 1-1096, looked up)
chain: MDDALHALSSLTAKKRTTTYKKVAVPILDENDNTNGNGPNDIDNPPELTGNGFLFANATLNRVKNRLEGKKAPEQNHNNGKDRSENSLPTQLISNLYDGGEELEKSEVKDNSYSEKNVSSSFTQTQRIPVSIQQDKVFNVPIHSVNDGKPTQLIKEDGLVNETSQALKTPLTTGRPGATQRIDSSGATSQTQPIKSIEPQSQIITTSSNHSNALSPKIPIIPTELIGTSPLFQSIQNRGPDTQMDVPPQTAHDEDKTQAIGIPQATHQEQKTQIDTVAQTLQDEVPHTLKIREIQSELASEDSKREKARNVEYKKPQKPIPTKKFFSKESFLADFDDSSSNEDDDIKLENAHPKPVQNDDELHENKSVELNLTDETRINEKRVPLLSSYANNLKREIDSSKCITLDLDSDSDEYGDDDMDSIKLSKDESVLPISQLSKATILNLKARLSKQNQKLSQRPNKSKDPKVDHNVLLNTLRKASRKQILDHQKEVIETKGLKLEDMAKEKEIVENLLEQEILRNKRIRQKEKRREKLEENDFQLNAHDSGSDSGSESSGFALSGNEIADYESSGSENDNRRESDSEKEDDEIILKQKKSHHVKHIINESDSDTEVEAKPKEKADESLPKRIAINLGHYGDNIGEDTDKFQETNVLDTQNIEEVMAERNTIENEVKDDVYVNEEADEAIRRQLIDKEKLQLKQKEKEHEAKIKELKKRGVTNFFEMEAEESEDEWHGIGGADGEGSDDYDSDLEKMIDDYSKNNFNPHEIREMLAAENKEMDIKMINKILYDIKNGGFRNKRAKNSLELELSDDDEDDVLQQYRLKRRELMRKRRLEIGDDAKLVKNPKSSAFFESMVEDIIEYKNPFGAEEEYNLDITSTATDLDTQDNSINVGDNTGNNEQKPVDQKNKKVIISEDFVQKSLSFLKSNNYEDFETDKELSRIQHGNDEAIEDLYTLKQNSSIKSFTNSQTDSTTSKTVNTIIDLEKRPEDEDEVENGDTSLVGVFKHPSIIKSFASRTDINDKFKEGNKTVKILKSYKTVGSSKASITYMGKTRKLIAPKRKTEGSHRYHHDHHNKKMKMKTKTKSNKLFESGQDSFDN
notes: Mrc1, budding yeast; also called Flag-tagged Mrc1; source: purified as previously described (Yeeles et al. 2017)
Consider B1, for which the binding result (with Smc3; in test [1]) was “binds” each time.

(Values after publication PMC10247859, “Replisome-cohesin interactions provided by the Tof1-Csm3 and Mrc1 cohesion establishment factors” (Chromosoma, 2023).)
